Data published in US20200399344A1 (SHATTUCK LABS, published 2020).

Key:
[1] = biological target: T1, anti-human IgG antibody (plate-bound); test: Fc ELISA: coat Anti-hFc (Jax), detect Anti-hFc-HRP (Jax)
T1 construct: also called anti-human Fc antibody

[2] = biological target: T2, hPD-L1 expressed on CHO-K1/hPD-L1 cells (human, UniProt Q9NZQ7 19-290); test: flow cytometry cell binding assay, CHO-K1-Luc cells, detection Anti-hARC-PE
T2 construct: whole, on cells

[3] = biological target: T3, PD-L1, plate-bound (Example 8) (Homo sapiens (Human), UniProt Q9NZQ7 19-238); test: Dual ELISA (capturing with PDL1): coat hPDL1-Fc (R&D), detect hHLA-E (Novus), HRP Anti-6X His
T3 construct: not shown: The Fc carrier of the vendor's hPD-L1-Fc (R&D) and any linker
T3 sequence (Q9NZQ7 19-238 limits assumed): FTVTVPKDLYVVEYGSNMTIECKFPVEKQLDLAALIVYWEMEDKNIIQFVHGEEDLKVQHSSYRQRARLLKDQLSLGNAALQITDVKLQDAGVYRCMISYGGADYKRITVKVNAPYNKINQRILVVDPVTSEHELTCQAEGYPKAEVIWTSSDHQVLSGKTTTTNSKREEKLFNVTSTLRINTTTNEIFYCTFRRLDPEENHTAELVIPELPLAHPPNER

[4] = biological target: T4, recombinant HLA-E-His protein (human, UniProt P13747 22-305, limits assumed); test: Dual binding ELISA (capturing with HLA-E): coat hHLA-E-His (Novus), detect Anti-hPD1 (Sino), HRP Anti-mFc-HRP
T4 construct: also called recombinant HLA-E (HLA-E-His); not shown: His tag
T4 sequence (P13747 22-305 limits assumed): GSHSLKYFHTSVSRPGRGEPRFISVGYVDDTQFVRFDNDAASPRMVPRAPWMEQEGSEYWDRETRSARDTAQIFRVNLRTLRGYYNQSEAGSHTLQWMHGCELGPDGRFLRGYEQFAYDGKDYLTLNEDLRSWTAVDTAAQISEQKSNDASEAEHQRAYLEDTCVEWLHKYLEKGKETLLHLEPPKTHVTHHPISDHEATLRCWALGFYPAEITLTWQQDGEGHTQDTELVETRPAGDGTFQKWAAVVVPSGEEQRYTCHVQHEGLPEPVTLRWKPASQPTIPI
Excerpt: (§1) As shown in FIG. 9C and FIG. 9D, binding of the hNKG2A domain of the hPD-1-Fc-hNKG2A chimeric protein was characterized by capturing to, respectively, a plate-bound HLA-E. In FIG. 9C, the hPD-1-Fc-hNKG2A chimeric protein was detected using an anti-human PD-1 antibody in conjunction with an HRP conjugated anti-mouse Fc antibody. In FIG. 9D, the hPD-1-Fc-hNKG2A chimeric protein was directly detected via an HRP conjugated anti-mouse Fc antibody.

[5] = biological target: T5, recombinant hPD-L1 (hPD-L1-Fc) protein (human, UniProt Q9NZQ7 19-239); test: dual ELISA; coat hPDL1-Fc, hPD1-fc-NKG2a titrated, detection HLA-E-His, Anti-His-6x-HRP; the signal needs both bindings
T5 construct: not shown: Fc
T5 sequence (Q9NZQ7 19-239 limits assumed): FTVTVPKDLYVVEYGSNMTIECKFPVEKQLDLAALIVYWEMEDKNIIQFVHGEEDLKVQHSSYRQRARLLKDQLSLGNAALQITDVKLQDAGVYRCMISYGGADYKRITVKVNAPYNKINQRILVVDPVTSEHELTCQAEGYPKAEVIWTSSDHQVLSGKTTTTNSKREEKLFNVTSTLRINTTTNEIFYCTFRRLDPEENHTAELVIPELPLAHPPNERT
Experimental: (§2) To understand whether the hPD-1-Fc-NKG2A chimeric protein can binds simultaneously to both hPD-L1 and HLA-E, the following ELISA experiment was carried out. Briefly, and recombinant hPD-L1 (hPD-L1-Fc) protein was coated on plates. Increasing amounts of the hPD-1-Fc-NKG2A chimeric protein was added to the plates for capture by the hPD-L1-Fc protein. Further, recombinant HLA-E (HLA-E-His) protein was added to the plate for capture by hPD-1-Fc-NKG2A chimeric protein. The binding of the HLA-E-His protein was detected using an anti-His 6× HRP antibody.

[6] = biological target: T4, recombinant HLA-E-His protein; test: ELISA (single-sided): coat hHLA-E-His (Novus), detect Anti-hFc (JAX); curve rises to about 0.4 at the highest concentration, no plateau
Excerpt: as §1, with “9D, the hPD-1-Fc-hNKG2A chimeric protein was directly detected via an HRP conjugated anti-mouse Fc antibody.” left out

[7] = biological target: T6, recombinant human CD28-His (rhCD28-His) (human, UniProt P10747 19-152); test: ELISA: coat rhCD28-His (Acro), detection Anti-hFc-HRP
T6 construct: also called Human CD28-His protein; recombinant CD28 protein; not shown: His tag
T6 sequence (P10747 19-152 limits assumed): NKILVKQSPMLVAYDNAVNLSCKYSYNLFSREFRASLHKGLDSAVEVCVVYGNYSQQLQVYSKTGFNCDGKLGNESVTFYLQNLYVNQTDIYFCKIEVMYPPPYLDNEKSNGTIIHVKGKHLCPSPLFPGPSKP
Experimental: To understand whether the CD80 and CD86 parts of the hCD80-Fc-NKG2A and hCD86-Fc-NKG2A chimeric protein can bind CD28, ELISA-based assays were performed. Briefly, recombinant CD28 protein was coated on plates and increasing amounts of the hCD80-Fc-NKG2A, hCD86-Fc-NKG2A, and mCD48-Fc-NKG2A chimeric proteins, and recombinant human CD86-Fc (rhCD86-Fc) protein was added to the plates for capture by the plate-bound recombinant CD28 protein. The mCD48-Fc-NKG2A chimeric protein, and recombinant human CDrhCD86-Fc protein was used as negative and positive controls, respectively. The chimeric proteins bound to the recombinant CD28 protein was detected using an anti-human Fc HRP.

[8] = biological target: T4, recombinant HLA-E-His protein; test: ELISA: the chimeric protein is the titrated coat (1:3), detection HLA-E-His (Novus NBP2-47435PEP), HRP Anti-6x-His-HRP
Experimental: In a complementary experiment, increasing amounts of the hCD48-Fc-NKG2A, hCD58-Fc-NKG2A, and hCD80-Fc-NKG2A chimeric proteins or a negative control protein was coated on plates. Recombinant HLA-E-His protein was added to the plates for capture by the plate-bound chimeric proteins or the negative control protein. The captured HLA-E-His protein was detected using an anti-6×-His-HRP antibody.

[9] = biological target: T7, recombinant human CD28-Fc (rhCD28-Fc) protein (human, UniProt P10747 19-152); test: dual ELISA; coat rhCD28-Fc, hCD80-fc-NKG2a titrated, detection HLA-E-His, Anti 6x-His-HRP; the signal needs both bindings
T7 construct: not shown: Fc
T7 sequence (P10747 19-152 limits assumed): as above
Experimental: as §2, with “hCD80-Fc-NKG2A” for “hPD-1-Fc-NKG2A”, “hCD28” for “hPD-L1”, “hCD28 (rhCD28-Fc)” for “hPD-L1 (hPD-L1-Fc)”, “recombinant human CD28-Fc (rhCD28-Fc)” for “hPD-L1-Fc”

[10] = biological target: T8, anti-mFc IgG antibody (plate-bound); test: ELISA: coat Anti-mFc (IgG) Jax #115-006-008, detection Anti-mFc (H+L) HRP
T8 construct: also called anti-Fc antibody
Experimental: To understand whether the Fc linkers from the native chimeric proteins can be accessed by anti-mouse Fc antibodies, ELISA-based assays were performed. For these assays, an anti-mFc IgG antibody was coated on plates and increasing amounts of the mPD-1-Fc-NKG2A and mSLAMF6-Fc-NKG2a chimeric proteins were added to the plates for capture by the plate-bound anti-mFc IgG antibody. The binding of the mPD-1-Fc-NKG2A and mSLAMF6-Fc-NKG2a chimeric proteins bound to the anti-mFc IgG antibody were detected using an anti-mFc HRP. An IgG antibody mouse Fc was used to generate a standard curve. mFc IgG was used as a positive control.

[11] = biological target: T9, recombinant PD-L1 protein (mPD-L1-His) (mouse, UniProt Q9EP73 19-238); test: ELISA; mPD1-Fc-NKG2a coated in rising amounts, detection mPD-L1-His, Anti-His-6x-HRP
T9 construct: not shown: His tag
T9 sequence (Q9EP73 19-238 limits assumed): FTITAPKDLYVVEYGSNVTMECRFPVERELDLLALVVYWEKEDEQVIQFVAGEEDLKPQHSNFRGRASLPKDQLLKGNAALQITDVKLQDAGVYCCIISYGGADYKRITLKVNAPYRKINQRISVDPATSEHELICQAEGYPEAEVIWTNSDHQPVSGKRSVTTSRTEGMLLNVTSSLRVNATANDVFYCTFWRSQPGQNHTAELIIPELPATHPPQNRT
Experimental: Programmed death-ligand 1 (PD-L1) is a PD-1 ligand. To understand whether the PD-1 parts of the PD-1-Fc-NKG2A chimeric protein can bind PD-L1, ELISA-based assays were performed. […] The chimeric protein bound to the recombinant PD-L1 protein was detected using an anti-His-6× HRP.

[12] = biological target: T10, recombinant mouse PD-L1-Fc (rmPD-L1-Fc) (mouse, UniProt Q9EP73 19-238); test: dual ELISA; coat mPDL1-Fc, mPD1-Fc-NKG2a titrated, detection HLA-E-His, Anti-His-6x-HRP; the signal needs both bindings
T10 construct: also called rPD-L1-Fc; not shown: Fc
T10 sequence (Q9EP73 19-238 limits assumed): as above
Experimental: Increasing amounts of the mPD-1-Fc-NKG2A chimeric protein was added and detected using HLA-E-His. A chimeric protein comprising ECD of a type II transmembrane protein other than NKG2A was used as a negative control.
as §2, with “PD-1-Fc-NKG2A” for “hPD-1-Fc-NKG2A”, “PD-L1” for “hPD-L1”, “PD-L1 (rPD-L1-Fc)” for “hPD-L1 (hPD-L1-Fc)”, “rPD-L1-Fc” for “hPD-L1-Fc”

T2 sequence (Q9NZQ7 19-290): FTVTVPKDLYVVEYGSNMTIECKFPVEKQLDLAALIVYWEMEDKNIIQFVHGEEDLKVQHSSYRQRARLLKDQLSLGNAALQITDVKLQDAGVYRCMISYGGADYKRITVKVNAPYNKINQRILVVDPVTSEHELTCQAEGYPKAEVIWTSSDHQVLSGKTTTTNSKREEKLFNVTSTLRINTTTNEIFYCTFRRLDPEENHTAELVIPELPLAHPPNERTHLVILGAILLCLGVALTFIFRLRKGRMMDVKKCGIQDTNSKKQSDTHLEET

B1: human PD-1-Fc-hNKG2A chimeric protein (Fc fusion)
chain: not shown
notes: the Fc of the tested construct is therefore uncertain; also called hPD-1-Fc-hNKG2A; hPD-1-Fc-NKG2A
How did the EC50 [1] turn out when B1 was run?
Its EC50 is 0.00964 µM.

And the “EC50 (read off the curve)” value [2]?
Its value is about 1 µg/mL.

What about the EC50 [3] of the same binder?
Its EC50 is 0.0256 µM.

What about the EC50 [4] of the same binder?
Its EC50 is about 0.175 µM.

What about the “EC50 (read off the curve)” value [5] of the same binder?
Its value is about 20 µg/mL.

And the EC50 [6]?
The EC50 was about 24200 µM.

B2: human CD80-Fc-NKG2A chimeric protein (Fc fusion)
chain: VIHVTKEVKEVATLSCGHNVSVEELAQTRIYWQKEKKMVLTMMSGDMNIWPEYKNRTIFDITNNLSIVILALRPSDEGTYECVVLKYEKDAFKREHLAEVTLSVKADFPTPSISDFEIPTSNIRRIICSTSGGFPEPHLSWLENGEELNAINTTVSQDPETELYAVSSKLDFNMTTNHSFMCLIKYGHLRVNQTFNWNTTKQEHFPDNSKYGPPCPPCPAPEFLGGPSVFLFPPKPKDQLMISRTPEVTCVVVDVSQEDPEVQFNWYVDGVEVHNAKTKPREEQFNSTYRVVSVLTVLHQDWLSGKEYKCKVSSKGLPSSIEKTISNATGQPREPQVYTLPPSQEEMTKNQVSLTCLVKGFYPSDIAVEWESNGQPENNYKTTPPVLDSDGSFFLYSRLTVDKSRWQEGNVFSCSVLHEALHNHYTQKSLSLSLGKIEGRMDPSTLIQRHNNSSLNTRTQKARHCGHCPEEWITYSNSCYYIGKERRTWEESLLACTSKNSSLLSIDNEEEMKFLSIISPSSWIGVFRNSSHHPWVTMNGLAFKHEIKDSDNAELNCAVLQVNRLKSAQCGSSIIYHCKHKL
notes: also called hCD80-Fc-NKG2A
Does B2 bind [7]?
Result: binds

And the “EC50 (read off the curve)” value [8]?
Its value is about 0.9 µg/mL.

Does B2 bind [9]?
Result: binds

B3: mouse PD-1-Fc-NKG2A chimeric protein (Fc fusion)
chain: SGWLLEVPNGPWRSLTFYPAWLTVSEGANATFTCSLSNWSEDLMLNWNRLSPSNQTEKQAAFCNGLSQPVQDARFQIIQLPNRHDFHMNILDTRRNDSGIYLCGAISLHPKAKIEESPGAELVVTERILETSTRYPSPSPKPEGRFQGMVPRDCGCKPCICTVPEVSSVFIFPPKPKDVLTITLTPKVTCVVVDISKDDPEVQFSWFVDDVEVHTAQTQPREEQFNSTFRSVSELPIMHQDWLNGKEFKCRVNSAAFPAPIEKTISKTKGRPKAPQVYTIPPPKEQMAKDKVSLTCMITDFFPEDITVEWQWNGQPAENYKNTQPIMDTDGSYFVYSKLNVQKSNWEAGNTFTCSVLHEGLHNHHTEKSLSHSPGIIEGRMDTPYTEAKAQINSSMTRTHRDINYTLSSAQPCPHCPKEWISYSHNCYFIGMERKSWNDSLVSCISKNCSLLYIDSEEEQDFLQSLSLISWTGILRKGRGQPWVWKEDSIFKPKIAEILHDECNCAMMSASGLTADNCTTLHPYLCKCKFPI
notes: also called mPD-1-Fc-NKG2A; mPD1-Fc-NKG2A
With B3 as the binder, how does the “EC50 (read off the curve)” value [10] read?
The value was about 0.08 µg/mL.

What about the “EC50 (read off the curve)” value [11] of the same binder?
The value was about 20 µg/mL.

And the “EC50 (read off the curve)” value [12]?
Its value is about 40 µg/mL.
